The text below walks through data of US20130323264A1.

For the experiment, the target named is monoclonal antibody against the N-terminal FERM domain of moesin. The experiment in a line: cell-based or functional assay.

For “N-terminal FERM domain of human moesin protein (from UniProt P26038 1-297)”, the CD62P FD (Mnx), platelet activation induced by anti-moesin N-terminal domain antibody, inhibitor N-terminal FERM domain was 5.79 FD (Mnx); the CD63 FD (Mnx), platelet activation induced by anti-moesin N-terminal domain antibody, inhibitor N-terminal FERM domain was 6.3 FD (Mnx); the PAIR, platelet aggregation induced by anti-moesin N-terminal domain antibody (2 µg/mL), inhibitor N-terminal domain (0.2 mM) is 90.2%; the PAR (%), platelet aggregation induced by anti-moesin N-terminal domain antibody (2 µg/mL), inhibitor N-terminal domain (0.2 mM) came to 6.03%.
